# Measurements published in PMC2719869, “A Mouse Model for the Metabolic Effects of the Human Fat Mass and Obesity Associated FTO Gene” (PLoS Genetics, 2009).
# Target: the molecule itself
# Test: native MS; non-denaturing nano-electrospray MS; 10 uM protein (Q-ToF) or 15 uM protein (Synapt HDMS) sprayed from 15 mM ammonium acetate pH 7.5, cone voltage 80 V; monomer to dimer
row,Protein,stoichiometry N
1,"C-terminal domain of wild-type murine FTO (residues D329-end) (domain or fragment, mouse, UniProt Q8BGW1 329-502, looked up, partial alpha-N-gluconylation of the N-terminal His-tag (+178 Da adduct, likely), FTO, mouse, C-terminal domain, residues 329-502; Further details of the construct are in Text S1; also called CmFTO; mFTO 329-502 truncation; source: E. coli, soluble; prepared as previously reported for full length mFTO [8]; not shown: His tag, N-terminal, kept) DYILERCQLALQNVLNDSDDGDVSLKSFDPAVLKQGEEIHNEVEFEWLRQFWFQGNRYKLCTDWWCEPMTHLEGLWKKMESMTNAVLREVKREGLPVEQRSEILSAILVPLTVRQNLRKEWHARCQSRVVRTLPVQQKPDCRPYWEKDDPSMPLPFDLTDVVSELRGQLLEARS",2
2,"wild-type murine FTO (fat mass and obesity associated protein), full length (enzyme, mouse, UniProt Q8BGW1 1-502, looked up, also called mFTO; wild-type mFTO; source: E. coli, soluble; prepared as previously reported for full length mFTO [8]) MKRVQTAEEREREAKKLRLLEELEDTWLPYLTPKDDEFYQQWQLKYPKLVFREAGSIPEELHKEVPEAFLTLHKHGCLFRDVVRIQGKDVLTPVSRILIGDPGCTYKYLNTRLFTVPWPVKGCTVKYTEAEIAAACQTFLKLNDYLQVETIQALEELAVREKANEDAVPLCMAEFPRAGVGPSCDDEVDLKSRAAYNVTLLNFMDPQKMPYLKEEPYFGMGKMAVSWHHDENLVDRSAVAVYSYSCEGSEDESEDESSFEGRDPDTWHVGFKISWDIETPGLTIPLHQGDCYFMLDDLNATHQHCVLAGSQPRFSSTHRVAECSTGTLDYILERCQLALQNVLNDSDDGDVSLKSFDPAVLKQGEEIHNEVEFEWLRQFWFQGNRYKLCTDWWCEPMTHLEGLWKKMESMTNAVLREVKREGLPVEQRSEILSAILVPLTVRQNLRKEWHARCQSRVVRTLPVQQKPDCRPYWEKDDPSMPLPFDLTDVVSELRGQLLEARS",2
